The text below walks through data of patent US20210047394A1 (Hoffmann-La Roche, published 2021).

Residue numbers refer to the chain shown, from its start.

Experiment [1] addresses T1, full-length Angiopoietin-2-His protein (R&D Systems #623-AN/CF or in house produced material) (human, UniProt O15123 19-496, limits assumed).
T1 construct: also called human ANG-2; ANG-2-His; not shown: His tag
T1 sequence: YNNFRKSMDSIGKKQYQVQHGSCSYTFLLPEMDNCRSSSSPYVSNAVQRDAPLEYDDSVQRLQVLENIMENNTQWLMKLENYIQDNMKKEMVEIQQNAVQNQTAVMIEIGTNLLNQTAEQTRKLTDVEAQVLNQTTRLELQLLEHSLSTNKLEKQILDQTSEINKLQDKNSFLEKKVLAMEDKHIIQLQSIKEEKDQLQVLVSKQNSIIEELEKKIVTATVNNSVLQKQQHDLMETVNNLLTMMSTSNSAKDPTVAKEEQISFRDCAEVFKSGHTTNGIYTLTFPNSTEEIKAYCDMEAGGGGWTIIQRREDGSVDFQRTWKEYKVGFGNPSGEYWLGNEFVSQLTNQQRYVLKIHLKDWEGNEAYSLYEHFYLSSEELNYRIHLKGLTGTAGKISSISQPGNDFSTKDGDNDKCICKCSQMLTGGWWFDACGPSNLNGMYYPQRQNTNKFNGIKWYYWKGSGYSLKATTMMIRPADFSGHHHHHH
The experiment in a line: ANG-2 binding ELISA, coated ANG-2.

Experiment [2] has as its target T1, full-length Angiopoietin-2-His protein …. The experiment in a line: cell-based or functional assay.
For experiment [3], the target named is T2, Angiopoietin-1-His (R&D systems #923-AN) (human, UniProt Q15389 20-498, limits assumed).
T2 construct: also called human ANG-1; hANG-1; not shown: His tag
T2 sequence: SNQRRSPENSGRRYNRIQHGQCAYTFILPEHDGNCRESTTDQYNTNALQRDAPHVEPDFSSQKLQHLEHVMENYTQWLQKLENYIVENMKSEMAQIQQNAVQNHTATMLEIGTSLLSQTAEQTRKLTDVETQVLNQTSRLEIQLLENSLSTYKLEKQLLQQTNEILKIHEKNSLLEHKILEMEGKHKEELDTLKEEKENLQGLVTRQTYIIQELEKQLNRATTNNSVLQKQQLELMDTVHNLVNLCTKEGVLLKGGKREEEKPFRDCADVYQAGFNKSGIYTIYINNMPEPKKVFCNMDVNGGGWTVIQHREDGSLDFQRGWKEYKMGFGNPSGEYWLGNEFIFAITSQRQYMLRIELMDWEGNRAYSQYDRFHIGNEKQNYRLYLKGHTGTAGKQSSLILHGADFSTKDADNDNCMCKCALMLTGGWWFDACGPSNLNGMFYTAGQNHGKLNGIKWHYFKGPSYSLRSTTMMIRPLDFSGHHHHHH
Nature of the experiment: ANG-1 binding ELISA, coated ANG-1. Background: An ELISA detects its analyte on a solid surface through an enzyme-linked reagent.

Experiment [4] has as its target T3, rhVEGF (R&D Systems Cat. No. 293-VE) (human, UniProt P15692 181-395).
T3 construct: Analyte in the Biacore assays; also called VEGF-A
Nature of the experiment: SPR (Biacore), hVEGF affinity. For orientation: In SPR one partner is held on a chip, and binding of the other changes the refractive index at the surface.

For experiment [5], the target named is T3, rhVEGF (R&D Systems Cat. No. 293-VE). The experiment in a line: SPR (Biacore T100), antibody captured via anti-human IgG, rhVEGF analyte, 37 C.
Experiment [6] deals with T1, full-length Angiopoietin-2-His protein …. Nature of the experiment: SPR (Biacore), antibody captured by secondary antibody, ANG-2 analyte; KD only a relative estimation.
The target of experiment [7] is T4, full-length VEGF165-His protein (R&D Systems) (human, UniProt P15692 181-395).
T4 construct: also called recombinant human VEGF165; VEGF-A; not shown: His tag
Nature of the experiment: VEGF binding ELISA, coated VEGF165.

Experiment [8] addresses T3, rhVEGF (R&D Systems Cat. No. 293-VE). The experiment in a line: SPR (Biacore), antibody on captured Ang-2, then rhVEGF.
Experiment [9] has as its target T1, full-length Angiopoietin-2-His protein …. The experiment in a line: SPR (Biacore T100), antibody captured via anti-hIgG-Fc, ANG-2-His analyte, 25 C; relative estimation.
Experiment [10] has the same target. Nature of the experiment: inhibition of huANG-2 binding to coated Tie-2 (ELISA).

T3 sequence (P15692 other isoform, or with tags, fused parts or gaps limits assumed): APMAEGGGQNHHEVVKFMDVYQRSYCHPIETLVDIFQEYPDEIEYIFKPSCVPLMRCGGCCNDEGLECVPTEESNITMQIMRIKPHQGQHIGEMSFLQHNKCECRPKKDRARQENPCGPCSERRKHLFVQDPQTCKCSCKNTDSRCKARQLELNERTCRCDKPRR
T4 sequence (P15692 other isoform, or with tags, fused parts or gaps): as the sequence (P15692 other isoform, or with tags, fused parts or gaps limits assumed) above

B1: <ANG-2>Ang2i_LC06 (antibody, V domains shown)
VH: not shown
VL: QPGLTQPPSVSVAPGQTARITCGGNNIGSKSVHWYQQKPGQAPVLVVYDDSDRPSGIPERFSGSNSGNTATLTISRVEAGDEADYYCQVWDSSSDHYVFGTGTKVTVLG
notes: Parent monospecific antibody
With B1, in experiment [1], the EC50 worked out at 0.084 µg/mL. Further, in experiment [2], the “IC50, ANGPT2 stimulated Tie2 phosphorylation (HEK293-Tie2 cells), first experiment” value is roughly 0.508 µg/mL and the “IC50, ANGPT2 stimulated Tie2 phosphorylation (HEK293-Tie2 cells), second experiment” value was roughly 0.424 µg/mL. This molecule displayed an EC50 in experiment [3] greater than 8 µg/mL.

B2: Bevacizumab-LC06-VH-VL (bispecific antibody, human IgG1, kappa)
heavy 1: not shown
heavy 2: not shown
light 1: QPGLTQPPSVSVAPGQTARITCGGNNIGSKSVHWYQQKPGQAPVLVVYDDSDRPSGIPERFSGSNSGNTATLTISRVEAGDEADYYCQVWDSSSDHYVFGTGTKVTVLRTVAAPSVFIFPPSDEQLKSGTASVVCLLNNFYPREAKVQWKVDNALQSGNSQESVTEQDSKDSTYSLSSTLTLSKADYEKHKVYACEVTHQGLSSPVTKSFNRGEC
light 2: EVQLVESGGGLVQPGGSLRLSCAASGYTFTNYGMNWVRQAPGKGLEWVGWINTYTGEPTYAADFKRRFTFSLDTSKSTAYLQMNSLRAEDTAVYYCAKYPHYYGSSHWYFDVWGQGTLVTVSSASVAAPSVFIFPPSDEQLKSGTASVVCLLNNFYPREAKVQWKVDNALQSGNSQESVTEQDSKDSTYSLSSTLTLSKADYEKHKVYACEVTHQGLSSPVTKSFNRGEC
notes: Bispecific, bivalent domain exchanged antibody (VH-VL exchange); also called Bevacizumab-LC06-CM-VH-VL
Take B2: in [4], the Kd was found to be 0.1 nM.

B3: Bevacizumab-LC06-VH-VL-SS (bispecific antibody, human IgG1, kappa)
heavy 1: not shown
heavy 2: not shown
light 1: B2 light 1 with T101C
light 2: B2 light 2
notes: Bispecific, bivalent domain exchanged antibody (VH-VL exchange and an additional VH44 VL100 disulfide bridge)
B3 yielded a Kd in [4] of 0.1 nM.

B4: disulfide-stabilized <VEGF-ANG-2> TvAb6 (bispecific antibody, IgG1)
heavy (part 1 of 2): EVQLVESGGGLVQPGGSLRLSCAASGFTISDYWIHWVRQAPGKGLEWVAGITPAGGYTYYADSVKGRFTISADTSKNTAYLQMNSLRAEDTAVYYCARFVFFLPYAMDYWGQGTLVTVSS
heavy (part 2 of 2): not shown
light: DIQMTQSPSSLSASVGDRVTITCRASQDVSTAVAWYQQKPGKAPKLLIYSASFLYSGVPSRFSGSGSGTDFTLTISSLQPEDFATYYCQQGYGNPFTFGQGTKVEIK
notes: Tetravalent: full-length IgG1 G6-31 with a VH44/VL100 disulfide-stabilized Mab536 scFv at the C-terminus of each heavy chain; also called TvAb6 (2331); No. 2331; not shown: IgG1 heavy chain constant region; light chain constant region
As for B4, in experiment [5], the dissociation constant Kd amounted to 0.00153 nM, the koff was 7.24e-06 s⁻¹, the kon stood at 4.72e+06 M⁻¹ s⁻¹ and the t1/2 came to 26.6 h. The Kd in experiment [6] was 4.4 nM.

B5: <ANG-2> Ang2k_LC08 (antibody, V domains shown)
VH: QVQLVESGGGVVQPGGSLRLSCAASGFTFSSYGMHWVRQAPGKGLEWVAVISYDGSNKYYADSVKGRFTISRDNSKNTLYLQMNSLRAEDTAVYYCAKPTLDIYMGYYYGMDVWGQGTTVTVSS
VL: QPVLTQPPSASGAPGQRVTISCSGFASNIGSNSVNWYQQVPGTAPKLLIYNNDQRPSGVPDRFSGSRSGTSASLAISGLQSEDEADYYCAAWDDSLNGPVFGGGTKLTVLG
notes: Parent monospecific antibody; also called <ANG-2>Ang2i-LC08
Molecule B5 registered an EC50 in experiment [1] of 0.105 µg/mL. In addition, in [2], the “IC50, ANGPT2 stimulated Tie2 phosphorylation (HEK293-Tie2 cells), first experiment” value is roughly 0.499 µg/mL and the “IC50, ANGPT2 stimulated Tie2 phosphorylation (HEK293-Tie2 cells), second experiment” value is roughly 0.399 µg/mL. The molecule further showed an EC50 in [3] of 4.04 µg/mL.

B6: <ANG-2>Ang2i_LC07 (antibody, V domains shown)
VH: not shown
VL: QPVLTQSPSVSVAPGETARVACGGNFIGGKSVHWYQQKPGQAPVLVIYDDSERPSGIPERISGSNSGNTATLIITRAEAGDEADYHCQVWDSDSDQGVFGTGTKLTVLG
notes: Parent monospecific antibody
In the case of B6, the figures for the EC50 in experiment [1] and in [3] were 3.01 µg/mL and greater than 8 µg/mL, respectively.

B7: <ANG-2> Mab536 (antibody, V domains shown)
VH: EVQLVQSGGGVVQPGRSLRLSCAASGFTFSSYGMHWVRQAPGKGLEWVSYISSSGSTIYYADSVKGRFTISRDNAKNSLYLQMNSLRAEDTAVYYCARDLLDYDILTGYGYWGQGTLVTVSS
VL: not shown
notes: monospecific 'standard' IgG1 antibody; also called Mab536 (1000)
With B7, the values for the binding result in experiment [7] and in [8] were “no binding” and “no binding (tested: 150 nM VEGF)”, respectively. Besides, the Kd in experiment [9] is 3 nM; in experiment [6], 1.6 nM. Further, the concentration giving a half-maximal response (EC50) in experiment [1] came to 0.133 µg/mL; in experiment [3], 2.54 µg/mL. Also, the IC50 in [10] stood at 0.015 µg/mL.

The EC50 is the midpoint of the concentration-response curve. Low values mean greater potency, high ones weaker potency. By Kd is commonly meant the constant that tells how readily two partners part at equilibrium. The koff is the first-order rate constant of dissociation. Higher therefore signals a short-lived complex. As a reminder, the kon is the rate constant with which the complex forms. High values mean faster complex formation, low ones slower complex formation. As a reminder, the IC50 is the concentration that gives 50% inhibition. Low readings indicate greater potency, high ones weaker potency.
